Reference: the supplement of paper PMC6757056
± gives the standard deviation of the averaged measurements.

B1: library; a variant is named by its letters at N, in order (parent)
chain: GCUGUCACCGGUGUAUUACCCUAGUGGUCGACCGGUCUGAUGAGUCUNNNNNNAGACGAAACAGC

Legend:
[1] = variants of: B1; assay: FACS-Seq fitted mean relative fluorescence mCherry/BFP without ligand (log10 relative fluorescence); ligand: hypoxanthine (xanthine aptamer); higher = higher reporter protein expression; conditions: HEK293T, ligand present: no
Method in brief: (§1)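 An mCherry reporter containing the ribozyme switch and an EF1α-BFP marker were introduced by lentivirus into HEK293T libraries. Cells were enriched, incubated 48 h with or without ligand, sorted into 6 bins by mCherry/BFP, and bin genomic DNA was PCR-amplified, barcoded and sequenced on MiSeq. Fluorescence represents the normalized fitted normal mean of the bin counts. Fitting was done on log10(mCherry/BFP), scaling to five spiked-in control ribozymes.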

[2] = variants of: B1; assay: normalized RNA/DNA level with ligand (relative to sTRSVctl = 100) (log10 (% of sTRSVctl)); ligand: hypoxanthine (xanthine aptamer); higher = less ribozyme self-cleavage, higher mRNA level; conditions: ligand concentration (+) RNA-Seq: 5 mM, HEK293T, reporter: mCherry (pCS4076), ligand present: yes
Method in brief: (§2)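 Library plasmids encoding reporter-linked ribozyme switches (mCherry, or eGFP for some folinic acid experiments) were transfected into HEK293T at 4 µg per 6-well well. Ligand, when used, was added 1 h before transfection. Total RNA was extracted with EDTA 72 h later, then reverse-transcribed, amplified, barcoded and sequenced. RNA level was RNA reads over DNA reads, divided by a spiked-in non-cleaving control (or the top 25 sequences), ×100, log10; only sequences with ≥100 DNA reads were kept.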

[3] = variants of: B1; assay: normalized RNA/DNA level without ligand (relative to sTRSVctl = 100) (log10 (% of sTRSVctl)); ligand: hypoxanthine (xanthine aptamer); higher = less ribozyme self-cleavage, higher mRNA level; conditions: HEK293T, reporter: mCherry (pCS4076), ligand present: no
Method in brief: as §2

[4] = variants of: B1; assay: FACS-Seq fitted mean relative fluorescence mCherry/BFP with ligand (log10 relative fluorescence); ligand: hypoxanthine (xanthine aptamer); ligand concentration (+) FACS-Seq: 5 mM; higher = higher reporter protein expression; conditions: HEK293T, ligand present: yes
Method in brief: as §1

| Variant | FACS-Seq fitted mean (log10) [1] | normalized RNA/DNA level with ligand (log10) [2] | normalized RNA/DNA level without ligand (log10) [3] | FACS-Seq fitted mean (log10) [4] |
| --- | --- | --- | --- | --- |
| GCUGUCACCGGUGUAUUACCCUAGUGGUCGACCGGUCUGAUGAGUCUGUAAGGAGACGAAACAGC [GUAAGG] | 0.181 ± 0.047 | 1.87 ± 0.042 | 1.38 ± 0.015 | 0.408 ± 0.026 |
| GCUGUCACCGGUGUAUUACCCUAGUGGUCGACCGGUCUGAUGAGUCUGUAAGAAGACGAAACAGC [GUAAGA] | 0.291 ± 0.0051 | 1.89 ± 0.0055 | 1.73 ± 0.01 | 0.214 ± 0.029 |
| GCUGUCACCGGUGUAUUACCCUAGUGGUCGACCGGUCUGAUGAGUCUAUAACAAGACGAAACAGC [AUAACA] | 0.00278 ± 0.0073 | 1.9 ± 0.041 | 1.83 ± 0.031 | 0.0853 ± 0.19 |
| GCUGUCACCGGUGUAUUACCCUAGUGGUCGACCGGUCUGAUGAGUCUCUAAGCAGACGAAACAGC [CUAAGC] | 0.0548 ± 0.024 | 1.94 ± 0.048 | 1.851 ± 0.0075 | 0.039 ± 0.019 |
| GCUGUCACCGGUGUAUUACCCUAGUGGUCGACCGGUCUGAUGAGUCUCUAAACAGACGAAACAGC [CUAAAC] | 0.4073 ± 0.0033 | 1.89 ± 0.025 | 1.827 ± 0.015 | 0.415 ± 0.1 |
| GCUGUCACCGGUGUAUUACCCUAGUGGUCGACCGGUCUGAUGAGUCUGUAAAGAGACGAAACAGC [GUAAAG] | -0.0437 ± 0.028 | 1.82 ± 0.023 | 1.49 ± 0.045 | -0.15 ± 0.059 |
| GCUGUCACCGGUGUAUUACCCUAGUGGUCGACCGGUCUGAUGAGUCUGUAAACAGACGAAACAGC [GUAAAC] | 0.572 ± 0.053 | 1.946 ± 0.0036 | 1.74 ± 0.028 | 0.739 ± 0.055 |
| GCUGUCACCGGUGUAUUACCCUAGUGGUCGACCGGUCUGAUGAGUCUGUAAAUAGACGAAACAGC [GUAAAU] | 0.503 ± 0.07 | 1.88 ± 0.053 | 1.778 ± 0.011 | 0.467 ± 0.11 |
| GCUGUCACCGGUGUAUUACCCUAGUGGUCGACCGGUCUGAUGAGUCUUUAACGAGACGAAACAGC [UUAACG] | 0.325 ± 0.025 | 1.94 ± 0.06 | 1.85 ± 0.052 | 0.41 ± 0.025 |
| GCUGUCACCGGUGUAUUACCCUAGUGGUCGACCGGUCUGAUGAGUCUUUAAAUAGACGAAACAGC [UUAAAU] | 0.322 ± 0.05 | 1.959 ± 0.016 | 1.83 ± 0.024 | 0.322 ± 0.013 |
| GCUGUCACCGGUGUAUUACCCUAGUGGUCGACCGGUCUGAUGAGUCUUUAAAGAGACGAAACAGC [UUAAAG] | 0.207 ± 0.12 | 1.886 ± 0.0075 | 1.6908 ± 0.00025 | 0.201 ± 0.0094 |
